The source of these data is patent publication US20250011363A1, “OPTIMIZED SHORTENED PEPTIDE THAT BINDS TO ACETYLCHOLINE RECEPTOR, AND USE THEREOF” (SKINMED CO., LTD., priority 2021, published 2025).

The experiment has as its target acetylcholine receptor (Homo sapiens, UniProt P02708). In words: SPR binding affinity (RU) of optimized 5mer/6mer/7mer peptides, Examples 6-7. A digest of the protocol:
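Single-concentration screen: 10 μM peptide, SPR detection, binding expressed as RU.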
For orientation: Surface plasmon resonance follows binding to a sensor surface in real time, without labels.

Where [1] appears, read: SPR, Resonance Units; peptides tested at 10 μM; 6mer-1 Bottom sequence.
[2] abbreviates: SPR, peptides tested at 10 μM; 6mer-1 Bottom sequence.
Setting [3] is: SPR, peptides tested at 10 μM; 6mer-1 Top sequence.
[4] abbreviates: 6mer-2 Top sequence; SPR; peptides tested at 10 μM.

Sequence of acetylcholine receptor (P02708 21-457): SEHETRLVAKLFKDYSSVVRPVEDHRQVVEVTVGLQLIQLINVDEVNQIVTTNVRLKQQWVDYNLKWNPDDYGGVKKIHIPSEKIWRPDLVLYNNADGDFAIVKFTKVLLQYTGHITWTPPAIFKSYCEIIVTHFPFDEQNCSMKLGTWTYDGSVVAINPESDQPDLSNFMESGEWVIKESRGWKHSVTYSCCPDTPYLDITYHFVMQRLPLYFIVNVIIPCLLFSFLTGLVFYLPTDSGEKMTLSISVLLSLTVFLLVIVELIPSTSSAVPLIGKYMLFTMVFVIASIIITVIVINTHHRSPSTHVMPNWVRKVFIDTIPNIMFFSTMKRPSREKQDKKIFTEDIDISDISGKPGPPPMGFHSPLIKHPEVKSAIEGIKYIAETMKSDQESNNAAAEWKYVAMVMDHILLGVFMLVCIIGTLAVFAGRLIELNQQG

With 6mer-1-1196 (KKTTGR), the Binding affinity under setting [1] is 25 Ru.

On to 6mer-1-1197 (KRPMAK), for which the Binding affinity under setting [1] came to 21 Ru.

With 6mer-1-1198 (RRATER), under setting [2], the Binding affinity amounted to 28 Ru.

Turning to 6mer-1-1199 (KKTNKR), the Binding affinity under setting [2] was 39 Ru.

As for 6mer-1-1200 (RKACEK), the Binding affinity under setting [2] was found to be 21 Ru.

Consider 6mer-1-1225 (RKLICK), for which the Binding affinity (6mer-1 Top sequence; SPR; peptides tested at 10 μM) is 142 Ru.

As to 6mer-1-1405 (KKVQTR), the Binding affinity under setting [3] came out at 148 Ru.

Consider 6mer-1-1458 (RKGQLK), for which, under setting [3], the Binding affinity is 139 Ru.

As to 6mer-2-1 (RRRLKK), the Binding affinity under setting [4] came out at 131 Ru.

6mer-2-2 (RWYLKR): under setting [4], the Binding affinity is 139 Ru.

Regarding 6mer-2-3 (KVYSRK), the Binding affinity under setting [4] was determined as 148 Ru.

For the substance 6mer-2-4 (RSYYRR), the Binding affinity under setting [4] amounted to 125 Ru.

For the substance 6mer-2-5 (RWVSKR), the Binding affinity under setting [4] came to 124 Ru.

For 6mer-2-6 (KSICRR), under setting [4], the Binding affinity came to 122 Ru.

For 6mer-2-7 (KSRCRK), the Binding affinity under setting [4] worked out at 126 Ru.

In the case of 6mer-2-8 (KSLQKK), the Binding affinity under setting [4] was found to be 135 Ru.

Consider 6mer-2-9 (KLICRK), for which, under setting [4], the Binding affinity was 139 Ru.

As to 6mer-2-10 (KVFSKK), under setting [4], the Binding affinity was 124 Ru.

Turning to 6mer-2-11 (RQYQRR), the Binding affinity under setting [4] is 121 Ru.

For 6mer-2-12 (RQFQRK), the Binding affinity under setting [4] came to 147 Ru.

As for 6mer-2-13 (RQYTRK), the Binding affinity under setting [4] was found to be 123 Ru.

As to 6mer-2-14 (RGRQKK), the Binding affinity under setting [4] is 153 Ru.

In the case of 6mer-2-15 (KQVRKR), under setting [4], the Binding affinity turned out to be 133 Ru.

6mer-2-16 (KGVCRR): the Binding affinity under setting [4] stood at 121 Ru.

On to 6mer-2-17 (RWVTRR), for which, under setting [4], the Binding affinity was 142 Ru.

For the substance 6mer-2-18 (RSILRR), the Binding affinity under setting [4] was determined as 124 Ru.

With 6mer-2-19 (RSFSKK), the Binding affinity under setting [4] came to 135 Ru.

6mer-2-20 (RVQTRR): the Binding affinity under setting [4] was found to be 137 Ru.

As for 6mer-2-21 (RLFTRK), under setting [4], the Binding affinity is reported as 141 Ru.

With 6mer-2-22 (RQIRKK), under setting [4], the Binding affinity amounted to 124 Ru.

Take 6mer-2-23 (RWVRKK): the Binding affinity under setting [4] is 148 Ru.

6mer-2-24 (KGIQRK): under setting [4], the Binding affinity is 141 Ru.

In the case of 6mer-2-25 (KQVQKR), the Binding affinity under setting [4] was 148 Ru.

6mer-2-26 (RWRRKK): the Binding affinity under setting [4] was determined as 121 Ru.

For the substance 6mer-2-27 (KVIRRK), the Binding affinity under setting [4] came to 128 Ru.

For the substance 6mer-2-28 (KVLSRK), under setting [4], the Binding affinity came to 142 Ru.

Consider 6mer-2-29 (RSQRKR), for which, under setting [4], the Binding affinity turned out to be 142 Ru.

As to 6mer-2-30 (RQFYKK), the Binding affinity under setting [4] came out at 139 Ru.

Take 6mer-2-31 (KSYQRK): the Binding affinity under setting [4] was determined as 121 Ru.

Turning to 6mer-2-32 (RRLCRK), the Binding affinity under setting [4] came to 139 Ru.

For the substance 6mer-2-33 (RQFRKK), the Binding affinity under setting [4] was 142 Ru.

As to 6mer-2-34 (KVFRRK), the Binding affinity under setting [4] came out at 124 Ru.

For 6mer-2-35 (RWISRK), under setting [4], the Binding affinity turned out to be 148 Ru.

For the substance 6mer-2-36 (RRLQKK), the Binding affinity under setting [4] stood at 131 Ru.

For 6mer-2-37 (KLLYRK), the Binding affinity under setting [4] is recorded as 148 Ru.

Consider 6mer-2-38 (RSYYKR), for which the Binding affinity under setting [4] is reported as 136 Ru.

On to 6mer-2-39 (RWRYRK), for which the Binding affinity under setting [4] turned out to be 137 Ru.

As for 6mer-2-40 (RRYRKK), the Binding affinity under setting [4] is given as 153 Ru.

6mer-2-41 (KQLCKR): the Binding affinity under setting [4] stood at 142 Ru.

As for 6mer-2-42 (KLLSKR), the Binding affinity under setting [4] was 126 Ru.

6mer-2-43 (RVITKR): under setting [4], the Binding affinity came out at 146 Ru.

For 6mer-2-44 (KSVRRK), the Binding affinity under setting [4] was 145 Ru.

For 6mer-2-45 (RSLTKK), the Binding affinity under setting [4] came to 121 Ru.

Take 6mer-2-46 (KLYLKR): under setting [4], the Binding affinity is 153 Ru.

On to 6mer-2-47 (KLQSRR), for which the Binding affinity under setting [4] worked out at 148 Ru.

Consider 6mer-2-48 (RRFRKK), for which, under setting [4], the Binding affinity was 153 Ru.

6mer-2-49 (RLRCRK): the Binding affinity under setting [4] is given as 154 Ru.

6mer-2-50 (RSQSKR): the Binding affinity under setting [4] is 125 Ru.

In the case of 6mer-2-51 (KQFLKK), under setting [4], the Binding affinity came to 139 Ru.

6mer-2-52 (KRQRKK): the Binding affinity under setting [4] was determined as 136 Ru.

With 6mer-2-53 (KSLSRR), the Binding affinity under setting [4] was 125 Ru.

With 6mer-2-54 (KGRRRR), under setting [4], the Binding affinity turned out to be 124 Ru.

Take 6mer-2-55 (RLFYKK): the Binding affinity under setting [4] was 125 Ru.

Regarding 6mer-2-56 (RSQLRR), the Binding affinity under setting [4] was determined as 149 Ru.

On to 6mer-2-57 (KQRCRR), for which the Binding affinity under setting [4] turned out to be 139 Ru.

As to 6mer-2-58 (KRLQRK), the Binding affinity under setting [4] came to 122 Ru.

As for 6mer-2-59 (RVLSRK), the Binding affinity under setting [4] amounted to 123 Ru.

Turning to 6mer-2-60 (RRLSKK), the Binding affinity under setting [4] was 148 Ru.

On to 6mer-2-61 (RGFQRK), for which the Binding affinity under setting [4] was determined as 148 Ru.

With 6mer-2-62 (RLVTKR), the Binding affinity under setting [4] worked out at 147 Ru.

Consider 6mer-2-63 (KSFRKR), for which the Binding affinity under setting [4] was 121 Ru.

As for 6mer-2-64 (KSVSKK), the Binding affinity under setting [4] was determined as 136 Ru.

On to 6mer-2-65 (KGVCKR), for which the Binding affinity under setting [4] turned out to be 148 Ru.

Turning to 6mer-2-66 (RVIRRR), under setting [4], the Binding affinity is reported as 123 Ru.

As for 6mer-2-67 (KLFCKK), under setting [4], the Binding affinity is 124 Ru.

As for 6mer-2-68 (KGRRRK), the Binding affinity under setting [4] was determined as 142 Ru.

As for 6mer-2-69 (KWFLRK), the Binding affinity under setting [4] amounted to 139 Ru.

On to 6mer-2-70 (KRLLRK), for which the Binding affinity under setting [4] was 126 Ru.

As for 6mer-2-71 (KQVYKR), the Binding affinity under setting [4] worked out at 141 Ru.

Consider 6mer-2-72 (KRIQKK), for which, under setting [4], the Binding affinity turned out to be 144 Ru.

Consider 6mer-2-73 (RLYTKR), for which the Binding affinity under setting [4] was 139 Ru.

In the case of 6mer-2-74 (RWIYKR), the Binding affinity under setting [4] turned out to be 136 Ru.

With 6mer-2-75 (KLYTRK), under setting [4], the Binding affinity came out at 133 Ru.

For 6mer-2-76 (RRQSRK), under setting [4], the Binding affinity is recorded as 142 Ru.

For the substance 6mer-2-77 (KQQTRR), the Binding affinity under setting [4] is 123 Ru.

For the substance 6mer-2-78 (KRYLKR), under setting [4], the Binding affinity was determined as 135 Ru.

Consider 6mer-2-79 (RQLSKR), for which the Binding affinity under setting [4] was 135 Ru.

In the case of 6mer-2-80 (RRQYKR), the Binding affinity under setting [4] worked out at 148 Ru.

Turning to 6mer-2-81 (RRVSRR), the Binding affinity under setting [4] was 121 Ru.

Consider 6mer-2-82 (RGVQKK), for which the Binding affinity under setting [4] came out at 124 Ru.

On to 6mer-2-83 (KQYQRR), for which the Binding affinity under setting [4] was 135 Ru.

As for 6mer-2-84 (KQRYKK), the Binding affinity under setting [4] was 139 Ru.

With 6mer-2-85 (KSQYKR), under setting [4], the Binding affinity came to 137 Ru.

On to 6mer-2-86 (KQFRRK), for which the Binding affinity under setting [4] stood at 126 Ru.

Regarding 6mer-2-87 (RRLTKR), the Binding affinity under setting [4] came to 142 Ru.

Take 6mer-2-88 (KSFQRR): under setting [4], the Binding affinity is on record as 141 Ru.

Take 6mer-2-89 (KSRSKK): the Binding affinity under setting [4] is 141 Ru.

Regarding 6mer-2-90 (KGRTKR), the Binding affinity under setting [4] was found to be 133 Ru.

As to 6mer-2-91 (KWIYKR), the Binding affinity under setting [4] came out at 121 Ru.
